Results on 13 molecules are retold here after patent US12099068B2, “Biomarkers for graft-versus-host disease” (Incyte Corporation, priority 2018, dated 2024).

B1: PEBP1 (protein, UniProt P30086 2-187, looked up)
Phosphatidylethanolamine-bindi …: PVDLSKWSGPLSLQEVDEQPQHPLHVTYAGAAVDELGKVLTPTQVKNRPTSISWDGLDSGKLYTLVLTDPDAPSRKDPKYREWHHFLVVNMKGNDISSGTVLSDYVGSGPPKGTGLHRYVWLVYEQDRPLKCDEPILSNRSGDHRGKFKVASFRKKYELRAPVAGTCYQAEWDDYVPKLYEQLSGK
B2: PSP-D (protein, UniProt P35247 21-375, looked up)
Pulmonary …: AEMKTYSHRTMPSACTLVMCSSVESGLPGRDGRDGREGPRGEKGDPGLPGAAGQAGMPGQAGPVGPKGDNGSVGEPGPKGDTGPSGPPGPPGVPGPAGREGPLGKQGNIGPQGKPGPKGEAGPKGEVGAPGMQGSAGARGLAGPKGERGVPGERGVPGNTGAAGSAGAMGPQGSPGARGPPGLKGDKGIPGDKGAKGESGLPDVASLRQQVEALQGQVQHLQAAFSQYKKVELFPNGQSVGEKIFKTAGFVKPFTEAQLLCTQAGGQLASPRSAAENAALQQLVVAKNEAAFLSMTDSKTEGKFTYPTGESLVYSNWAPGEPNDDGGSEDCVEIFTNGKWNDRACGEKRLVVCEF
B3: CD5 (protein, UniProt P06127 25-495, looked up)
T-cell surface glycoprotein …: RLSWYDPDFQARLTRSNSKCQGQLEVYLKDGWHMVCSQSWGRSSKQWEDPSQASKVCQRLNCGVPLSLGPFLVTYTPQSSIICYGQLGSFSNCSHSRNDMCHSLGLTCLEPQKTTPPTTRPPPTTTPEPTAPPRLQLVAQSGGQHCAGVVEFYSGSLGGTISYEAQDKTQDLENFLCNNLQCGSFLKHLPETEAGRAQDPGEPREHQPLPIQWKIQNSSCTSLEHCFRKIKPQKSGRVLALLCSGFQPKVQSRLVGGSSICEGTVEVRQGAQWAALCDSSSARSSLRWEEVCREQQCGSVNSYRVLDAGDPTSRGLFCPHQKLSQCHELWERNSYCKKVFVTCQDPNPAGLAAGTVASIILALVLLVVLLVVCGPLAYKKLVKKFRQKKQRQWIGPTGMNQNMSFHRNHTATVRSHAENPTASHVDNEYSQPPRNSHLSAYPALEGALHRSSMQPDNSSDSDYDLHGAQRL
B4: LILRB2 (protein, UniProt Q8N423 22-597, looked up)
Leukocyte immunoglobulin-like …: QTGTIPKPTLWAEPDSVITQGSPVTLSCQGSLEAQEYRLYREKKSASWITRIRPELVKNGQFHIPSITWEHTGRYGCQYYSRARWSELSDPLVLVMTGAYPKPTLSAQPSPVVTSGGRVTLQCESQVAFGGFILCKEGEDEHPQCLNSQPHARGSSRAIFSVGPVSPNRRWSHRCYGYDLNSPYVWSSPSDLLELLVPGVSKKPSLSVQPGPVMAPGESLTLQCVSDVGYDRFVLYKEGERDLRQLPGRQPQAGLSQANFTLGPVSRSYGGQYRCYGAHNLSSECSAPSDPLDILITGQIRGTPFISVQPGPTVASGENVTLLCQSWRQFHTFLLTKAGAADAPLRLRSIHEYPKYQAEFPMSPVTSAHAGTYRCYGSLNSDPYLLSHPSEPLELVVSGPSMGSSPPPTGPISTPGPEDQPLTPTGSDPQSGLGRHLGVVIGILVAVVLLLLLLLLLFLILRHRRQGKHWTSTQRKADFQHPAGAVGPEPTDRGLQWRSSPAADAQEENLYAAVKDTQPEDGVEMDTRAAASEAPQDVTYAQLHSLTLRRKATEPPPSQEREPPAEPSIYATLAIH
B5: CRTAM (protein, UniProt O95727 18-393, looked up)
Cytotoxic and regulatory …: SLTNHTETITVEEGQTLTLKCVTSLRKNSSLQWLTPSGFTIFLNEYPALKNSKYQLLHHSANQLSITVPNVTLQDEGVYKCLHYSDSVSTKEVKVIVLATPFKPILEASVIRKQNGEEHVVLMCSTMRSKPPPQITWLLGNSMEVSGGTLHEFETDGKKCNTTSTLIIHTYGKNSTVDCIIRHRGLQGRKLVAPFRFEDLVTDEETASDALERNSLSSQDPQQPTSTVSVTEDSSTSEIDKEEKEQTTQDPDLTTEANPQYLGLARKKSGILLLTLVSFLIFILFIIVQLFIMKLRKAHVIWKKENEVSEHTLESYRSRSNNEETSSEEKNGQSSHPMRCMNYITKLYSEAKTKRKENVQHSKLEEKHIQVPESIV
B6: TANK (protein, UniProt Q92844 1-425, looked up)
TRAF family member-associated …: MDKNIGEQLNKAYEAFRQACMDRDSAVKELQQKTENYEQRIREQQEQLSLQQTIIDKLKSQLLLVNSTQDNNYGCVPLLEDSETRKNNLTLDQPQDKVISGIAREKLPKVRRQEVSSPRKETSARSLGSPLLHERGNIEKTFWDLKEEFHKICMLAKAQKDHLSKLNIPDTATETQCSVPIQCTDKTDKQEALFKPQAKDDINRGAPSITSVTPRGLCRDEEDTSFESLSKFNVKFPPMDNDSTFLHSTPERPGILSPATSEAVCQEKFNMEFRDNPGNFVKTEETLFEIQGIDPIASAIQNLKTTDKTKPSNLVNTCIRTTLDRAACLPPGDHNALYVNSFPLLDPSDAPFPSLDSPGKAIRGPQQPIWKPFPNQDSDSVVLSGTDSELHIPRVCEFCQAVFPPSITSRGDFLRHLNSHFNGET
B7: SLAMF1 (protein, UniProt Q13291 21-335, looked up)
Signaling lymphocytic …: ASYGTGGRMMNCPKILRQLGSKVLLPLTYERINKSMNKSIHIVVTMAKSLENSVENKIVSLDPSEAGPPRYLGDRYKFYLENLTLGIRESRKEDEGWYLMTLEKNVSVQRFCLQLRLYEQVSTPEIKVLNKTQENGTCTLILGCTVEKGDHVAYSWSEKAGTHPLNPANSSHLLSLTLGPQHADNIYICTVSNPISNNSQTFSPWPGCRTDPSETKPWAVYAGLLGGVIMILIMVVILQLRRRGKTNHYQTTVEKKSLTIYAQVQKPGPLQKKLDSFPAQDPCTTIYVAATEPVPESVQETNSITVYASVTLPES
B8: CPXM1 (protein, UniProt Q96SM3 21-734, looked up)
Probable carboxypeptidase X1: APRNSVLGLAQPGTTKVPGSTPALHSSPAQPPAETANGTSEQHVRIRVIKKKKVIMKKRKKLTLTRPTPLVTAGPLVTPTPAGTLDPAEKQETGCPPLGLESLRVSDSRLEASSSQSFGLGPHRGRLNIQSGLEDGDLYDGAWCAEEQDADPWFQVDAGHPTRFSGVITQGRNSVWRYDWVTSYKVQFSNDSRTWWGSRNHSSGMDAVFPANSDPETPVLNLLPEPQVARFIRLLPQTWLQGGAPCLRAEILACPVSDPNDLFLEAPASGSSDPLDFQHHNYKAMRKLMKQVQEQCPNITRIYSIGKSYQGLKLYVMEMSDKPGEHELGEPEVRYVAGMHGNEALGRELLLLLMQFLCHEFLRGNPRVTRLLSEMRIHLLPSMNPDGYEIAYHRGSELVGWAEGRWNNQSIDLNHNFADLNTPLWEAQDDGKVPHIVPNHHLPLPTYYTLPNATVAPETRAVIKWMKRIPFVLSANLHGGELVVSYPFDMTRTPWAARELTPTPDDAVFRWLSTVYAGSNLAMQDTSRRPCHSQDFSVHGNIINGADWHTVPGSMNDFSYLHTNCFEVTVELSCDKFPHENELPQEWENNKDALLTYLEQVRMGIAGVVRDKDTELGIADAVIAVDGINHDVTTAWGGDYWRLLTPGDYMVTASAEGYHSVTRNCRVTFEEGPFPCNFVLTKTPKQRLRELLAAGAKVPPDLRRRLERLRGQKD
B9: SELE (protein, UniProt P16581 22-610, looked up)
E-selectin: WSYNTSTEAMTYDEASAYCQQRYTHLVAIQNKEEIEYLNSILSYSPSYYWIGIRKVNNVWVWVGTQKPLTEEAKNWAPGEPNNRQKDEDCVEIYIKREKDVGMWNDERCSKKKLALCYTAACTNTSCSGHGECVETINNYTCKCDPGFSGLKCEQIVNCTALESPEHGSLVCSHPLGNFSYNSSCSISCDRGYLPSSMETMQCMSSGEWSAPIPACNVVECDAVTNPANGFVECFQNPGSFPWNTTCTFDCEEGFELMGAQSLQCTSSGNWDNEKPTCKAVTCRAVRQPQNGSVRCSHSPAGEFTFKSSCNFTCEEGFMLQGPAQVECTTQGQWTQQIPVCEAFQCTALSNPERGYMNCLPSASGSFRYGSSCEFSCEQGFVLKGSKRLQCGPTGEWDNEKPTCEAVRCDAVHQPPKGLVRCAHSPIGEFTYKSSCAFSCEEGFELHGSTQLECTSQGQWTEEVPSCQVVKCSSLAVPGKINMSCSGEPVFGTVCKFACPEGWTLNGSAARTCGATGHWSGLLPTCEAPTESNIPLVAGLSAAGLSLLTLAPFLLWLRKCLRKAKKFVPASSCQSLESDGSYQKPSYIL
B10: SELL (protein, UniProt P14151 39-372, looked up)
L-selectin: WTYHYSEKPMNWQRARRFCRDNYTDLVAIQNKAEIEYLEKTLPFSRSYYWIGIRKIGGIWTWVGTNKSLTEEAENWGDGEPNNKKNKEDCVEIYIKRNKDAGKWNDDACHKLKAALCYTASCQPWSCSGHGECVEIINNYTCNCDVGYYGPQCQFVIQCEPLEAPELGTMDCTHPLGNFSFSSQCAFSCSEGTNLTGIEETTCGPFGNWSSPEPTCQVIQCEPLSAPDLGIMNCSHPLASFSFTSACTFICSEGTELIGKKKTICESSGIWSNPSPICQKLDKSFSMIKEGDYNPLFIPVAVMVTAFSGLAFIIWLARRLKKGKKSKRSMNDPY
B11: RELT (protein, UniProt Q969Z4 26-430, looked up)
Tumor necrosis factor …: STTLWQCPPGEEPDLDPGQGTLCRPCPPGTFSAAWGSSPCQPHARCSLWRRLEAQVGMATRDTLCGDCWPGWFGPWGVPRVPCQPCSWAPLGTHGCDEWGRRARRGVEVAAGASSGGETRQPGNGTRAGGPEETAAQYAVIAIVPVFCLMGLLGILVCNLLKRKGYHCTAHKEVGPGPGGGGSGINPAYRTEDANEDTIGVLVRLITEKKENAAALEELLKEYHSKQLVQTSHRPVSKLPPAPPNVPHICPHRHHLHTVQGLASLSGPCCSRCSQKKWPEVLLSPEAVAATTPVPSLLPNPTRVPKAGAKAGRQGEITILSVGRFRVARIPEQRTSSMVSEVKTITEAGPSWGDLPDSPQPGLPPEQQALLGSGGSRTKWLKPPAENKAEENRYVVRLSESNLVI
B12: MESDC2 (protein, UniProt Q14696 34-234, looked up)
LRP chaperone MESD: AEGSPGTPDESTPPPRKKKKDIRDYNDADMARLLEQWEKDDDIEEGDLPEHKRPSAPVDFSKIDPSKPESILKMTKKGKTLMMFVTVSGSPTEKETEEITSLWQGSLFNANYDVQRFIVGSDRAIFMLRDGSYAWEIKDFLVGQDRCADVTLEGQVYPGKGGGSKEKNKTKQDKGKKKKEGDLKSRSSKEENRAGNKREDL
B13: CLEC5A (protein, UniProt Q9NY25 1-188, looked up)
C-type lectin domain family 5 …: MNWHMIISGLIVVVLKVVGMTLFLLYFPQIFNKSNDGFTTTRSYGTVSQIFGSSSPSPNGFITTRSYGTVCPKDWEFYQARCFFLSTSESSWNESRDFCKGKGSTLAIVNTPEKLKFLQDITDAEKYFIGLIYHREEKRWRWINNSVFNGNVTNQNQNFNCATIGLTKTFDAASCDISYRRICEKNAK

For the assay, the system named is plasma proteins. Description: Plasma proteins modulated between baseline and day 28 in responders (CR, VGPR, PR; n = 19), Example 6 (Table 13). It is filed as in vivo, human. The conditions noted are these: plasma protein (OLINK NPX); responders (CR, VGPR, PR; n = 19); itacitinib 200 mg or 300 mg QD with corticosteroids; day 28 vs baseline. The method, boiled down: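 Plasma at baseline/screening and day 28 profiled for >1000 proteins by OLINK proximity extension assay, reported as NPX (log2). Steroid-naive and steroid-refractory patients pooled. Paired and unpaired t tests, ANOVA and Pearson correlation applied; significance at P<0.05.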
Take B1: the “Fold Change, Decreased Expression from Baseline to Day 28” value (from here on “Fold Change, Decreased Expression”) was −1.307.

Turning to B2, the “Fold Change, Decreased Expression” value is recorded as −1.2426.

Consider B3, for which the “Fold Change, Decreased Expression” value is listed as −1.9942.

As to B4, the “Fold Change, Decreased Expression” value is reported as −1.2555.

Regarding B5, the “Fold Change, Decreased Expression” value is −1.5805.

In the case of B6, the “Fold Change, Decreased Expression” value is −1.3124.

As for B7, the “Fold Change, Decreased Expression” value was −1.2218.

For B8, the “Fold Change, Decreased Expression” value was −1.4779.

On to B9, for which the “Fold Change, Decreased Expression” value was −1.5291.

As for B10, the “Fold Change, Decreased Expression” value is recorded as −1.4428.

Take B11: the “Fold Change, Decreased Expression” value is −1.3317.

As to B12, the “Fold Change, Decreased Expression” value is −1.7056.

As to B13, the “Fold Change, Decreased Expression” value is recorded as −1.3618.
